Where a chain is given by its changes, count along the chain named.
Experiments:
[1] = biological target: T1, mutated human CRTH2 with amino acid substitution (Homo sapiens, UniProt Q9Y5Y4, D177A/G178A/R179A); experiment: Epitope analysis using CHO-S cells which express mutated human CRTH2 with amino acid substitution; type: binding; conditions: mutant D177A, G178A, and R179A; antibody 10 μg/mL; relative to wild-type = 100%
T1 construct: inserting genes encoding various mutants with amino acid substitution obtained by deleting termination codons; expressed in transfected cells; host or cells: CHO-S cells (Lifetechnologies), transient (phmAG1-MNLinker vector)
T1 sequence (Q9Y5Y4 1-395 D177A/G178A/R179A): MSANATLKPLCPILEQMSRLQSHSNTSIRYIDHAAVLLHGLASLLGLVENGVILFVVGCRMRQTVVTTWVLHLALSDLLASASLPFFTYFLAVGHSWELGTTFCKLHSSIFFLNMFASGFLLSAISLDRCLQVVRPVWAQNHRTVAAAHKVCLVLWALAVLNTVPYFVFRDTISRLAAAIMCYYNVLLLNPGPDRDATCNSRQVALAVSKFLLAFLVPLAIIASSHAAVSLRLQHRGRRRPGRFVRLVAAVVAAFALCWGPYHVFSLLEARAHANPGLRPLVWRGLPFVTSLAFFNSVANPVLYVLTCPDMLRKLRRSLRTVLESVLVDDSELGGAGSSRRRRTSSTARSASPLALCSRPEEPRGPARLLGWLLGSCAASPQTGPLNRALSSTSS
Experimental: (§1) A mutant with amino acid substitution expression vector obtained by partially substituting amino acid residues in an extracellular region with other amino acid residues among the amino acid sequences of human CRTH2 was prepared. Specifically, mutant with amino acid substitution expression vectors obtained by substitution of S2A; N4A; T6A and L7A; K8A, P9A, and L10A; P12A, L14A, and EISA; Q16E, R19H, and Q21R; H23A, S24A, and N25A; T26A, S27A, and I28A; D171A, T172A, and I173A; S174A, R175A, and L176A; D177A, G178A, and R179A; 1180A and M181A; Y183A, Y184A, and N185A; L187A, L188A, and L189A; N190A; P191A; G192A; P193A; D194A; R195A; D196A, and T198A; N275A, G277A, and L278A; P276A; P279A and L281A; P280A; or V282A, R283A, and R284A in the amino acid sequences represented by SEQ ID NO: 2 were respectively prepared. It should be noted that the above symbols in the amino acid substitution indicate [single letter code of an amino acid residue before substitution] [substitution position counting from the N terminal] [single letter code of the amino acid reside after substitution].
(§2) Azami-Green tag was added to the intercellular C terminal region by inserting genes encoding various mutants with amino acid substitution obtained by deleting termination codons to the restriction enzyme sites of BamHI and HindIII using phmAG1-MNLinker (MBL) as expression vectors.
(§3) The above-described vectors expressing mutants with amino acid substitution were prepared using 1) a method of entirely synthesizing gene sequences encoding mutants with amino acid substitution and inserting the gene sequences into a vector or 2) a method of performing site-specific mutation from a vector into which DNA which encodes the amino acid sequences of wild-type human CRTH2 represented by SEQ ID NO: 1 was inserted.
(§4) CHO-S cells (Lifetechnologies) were used for preparing mutated human CRTH2 with amino acid substitution expressing cell lines. Free style CHO expression medium (Invitrogen) containing 8 mM L-Glutamine (Invitrogen) was used for subculturing cells and the cells were cultured by shaking under the conditions of 37° C. in the presence of 5% CO2.
(§5) 25 μg of the mutated human CRTH2 with amino acid substitution expression vector prepared in (1) described above was dissolved in 400 μL of Opti-Pro SFM (Invitrogen) and 25 μL of a Freestyle MAX Reagent (Invitrogen) was dissolved in 400 μL of Opti-Pro SFM and each of them were allowed to stand at room temperature for 5 minutes. The two liquids were mixed with each other and allowed to stand at room temperature for 15 minutes. The mixed solution was added to the CHO-S culture solution and the cells were cultured for 24 hours, thereby obtaining cell lines which express mutated human CRTH2 with amino acid substitution.
(§6) The CHO-S cells which express mutated human CRTH2 with amino acid substitution established in (2) were washed with SM, seeded in a 96-well plate such that one well has 2×10^5 cells, and centrifuged at 1700 rpm for 2 minutes. After the supernatant was removed, chLym2, LV0HV1, the anti-human CRTH2 antibody hu19A2 v52, hu8B1 v1, ch3C12, or ch31A5 prepared in Example 9, or a commercially available anti-human CRTH2 antibody BM16 (Santa Cruz) prepared to have a concentration of 10 μg/mL using SM was added thereto to cause a reaction at 4° C. for 1 hour.
(§7) After the cells were washed, goat anti-Human IgG Alexa 647 (Molecular Probes) diluted with SM was added to wells to which chLym2, LV0HV1, hu19A2 v52, hu8B1 v1, ch3C12, or ch31A5 was added and goat anti-Rat IgG Alexa 647 (Molecular Probes) diluted with SM was added to wells to which BM16 was added at a final concentration of 10 μg/mL to cause a reaction at 4° C. for 1 hour.
(§8) After the reaction, the cells were washed and suspended with SM, and the fluorescent intensity was analyzed by flow cytometry (BD Biosciences, FACS CantoII). […]

[2] = biological target: T2, mutated human CRTH2 with amino acid substitution (Homo sapiens, UniProt Q9Y5Y4, G192A); experiment: as above; type: binding; conditions: mutant G192A; antibody 10 μg/mL; relative to wild-type = 100%
T2 construct: inserting genes encoding various mutants with amino acid substitution obtained by deleting termination codons; expressed in transfected cells; host or cells: CHO-S cells (Lifetechnologies), transient (phmAG1-MNLinker vector)
T2 sequence (Q9Y5Y4 1-395 G192A): T1 sequence (Q9Y5Y4 1-395 D177A/G178A/R179A) with A177D, A178G, A179R, G192A
Experimental: as §1, §2, §3, §4, §5, §6, §7, §8

B1: LV0HV1: humanized Lym2 antibody, VL LV0 (SEQ ID NO: 33), VH HV1 (SEQ ID NO: 51) (antibody, V domains shown)
VH: EVQLVESGGGVVQPGRSLRLSCAASGFTFSNYYMAWVRQAPGKGLEWVATISYDGSSTYYRDSVKGRFTISRDNAKNSLYLQMNSLRAEDTATYYCARHRGYYYSGAGYFDYWGQGTMVTVSS
VL: DIVMTQTPLSLPVTPGESASISCRSSQSLEYSDGYTYLEWYLQKPGQSPQVLIYGVSNRFSGVPDRFSGSGSGTDFTLKISRVEAEDVGVYYCFQATHDPLTFGQGTKLEIK
[1]
  reactivity against cells expressing mutated human CRTH2: lost
[2]
  reactivity against cells expressing mutated human CRTH2: lost
